Experimental data published in patent US20240252592A1 (TIANJIN INSTITUTE OF PHARMACEUTICAL RESEARCH, published 2024).

Columns and labels:
GC receptor = assay: cell-based or functional assay
human GLP-1 receptor = human GLP-1 receptor (human, UniProt P43220 24-463); assay: cell-based or functional assay

EC50 of GC receptor mediated cAMP production (GC receptor) [nM]	EC50 of GLP-1 receptor mediated cAMP production (human GLP-1 receptor) [nM]	Binder
0.148	0.58	HXQGTFTSDYSKYLXERAAKEFVXWLEAGGPSSG (HELM PEPTIDE1{H.[Aib].Q.G.T.F.T.S.D.Y.S.K.Y.L.D.E.R.A.A.K.E.F.V.A.W.L.E.A.G.G.P.S.S.G.[am]}|PEPTIDE2{[CCCCCCCCCCCCCCCC(=O)[*:2]].[gGlu].[gGlu]}$PEPTIDE1,PEPTIDE2,20:R3-3:R2$$$V2.0; N-terminus assumed; SMILES CCCCCCCCCCCCCCCC(=O)N[C@@H](CCC(=O)N[C@@H](CCC(=O)NCCCC[C@H](NC(=O)[C@H](C)NC(=O)[C@H](C)NC(=O)[C@H](CCCNC(=N)N)NC(=O)[C@H](CCC(=O)O)NC(=O)[C@H](CC(=O)O)NC(=O)[C@H](CC(C)C)NC(=O)[C@H](Cc1ccc(O)cc1)NC(=O)[C@H](CCCCN)NC(=O)[C@H](CO)NC(=O)[C@H](Cc1ccc(O)cc1)NC(=O)[C@H](CC(=O)O)NC(=O)[C@H](CO)NC(=O)[C@@H](NC(=O)[C@H](Cc1ccccc1)NC(=O)[C@@H](NC(=O)CNC(=O)[C@H](CCC(N)=O)NC(=O)C(C)(C)NC(=O)[C@@H](N)Cc1c[nH]cn1)[C@@H](C)O)[C@@H](C)O)C(=O)N[C@@H](CCC(=O)O)C(=O)N[C@@H](Cc1ccccc1)C(=O)N[C@H](C(=O)N[C@@H](C)C(=O)N[C@@H](Cc1c[nH]c2ccccc12)C(=O)N[C@@H](CC(C)C)C(=O)N[C@@H](CCC(=O)O)C(=O)N[C@@H](C)C(=O)NCC(=O)NCC(=O)N1CCC[C@H]1C(=O)N[C@@H](CO)C(=O)N[C@@H](CO)C(=O)NCC(N)=O)C(C)C)C(=O)O)C(=O)O) [Compound 15]
0.092	0.405	HXQGTFTSDKSKYLEERAAKEFIAWLLEGGPSSG (HELM PEPTIDE1{H.[Aib].Q.G.T.F.T.S.D.K.S.K.Y.L.E.E.R.A.A.K.E.F.I.A.W.L.L.E.G.G.P.S.S.G.[am]}|PEPTIDE2{[CCCCCCCCCCCCCCCC(=O)[*:2]].[gGlu].[gGlu]}$PEPTIDE1,PEPTIDE2,10:R3-3:R2$$$V2.0; N-terminus assumed; SMILES CCCCCCCCCCCCCCCC(=O)N[C@@H](CCC(=O)N[C@@H](CCC(=O)NCCCC[C@H](NC(=O)[C@H](CC(=O)O)NC(=O)[C@H](CO)NC(=O)[C@@H](NC(=O)[C@H](Cc1ccccc1)NC(=O)[C@@H](NC(=O)CNC(=O)[C@H](CCC(N)=O)NC(=O)C(C)(C)NC(=O)[C@@H](N)Cc1c[nH]cn1)[C@@H](C)O)[C@@H](C)O)C(=O)N[C@@H](CO)C(=O)N[C@@H](CCCCN)C(=O)N[C@@H](Cc1ccc(O)cc1)C(=O)N[C@@H](CC(C)C)C(=O)N[C@@H](CCC(=O)O)C(=O)N[C@@H](CCC(=O)O)C(=O)N[C@@H](CCCNC(=N)N)C(=O)N[C@@H](C)C(=O)N[C@@H](C)C(=O)N[C@@H](CCCCN)C(=O)N[C@@H](CCC(=O)O)C(=O)N[C@@H](Cc1ccccc1)C(=O)N[C@H](C(=O)N[C@@H](C)C(=O)N[C@@H](Cc1c[nH]c2ccccc12)C(=O)N[C@@H](CC(C)C)C(=O)N[C@@H](CC(C)C)C(=O)N[C@@H](CCC(=O)O)C(=O)NCC(=O)NCC(=O)N1CCC[C@H]1C(=O)N[C@@H](CO)C(=O)N[C@@H](CO)C(=O)NCC(N)=O)[C@@H](C)CC)C(=O)O)C(=O)O) [Compound 16]
